# T1: human OX40 IgG1 Fc chimera (human, UniProt P43489 29-214)
# T1 chain: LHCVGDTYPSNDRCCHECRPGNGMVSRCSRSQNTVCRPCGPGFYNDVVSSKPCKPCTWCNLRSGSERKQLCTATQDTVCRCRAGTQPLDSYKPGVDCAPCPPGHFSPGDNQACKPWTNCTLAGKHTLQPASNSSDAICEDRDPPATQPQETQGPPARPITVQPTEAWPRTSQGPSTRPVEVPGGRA
# B1: anti-OX40 antibody clone B19 (antibody, V domains shown)
# VH: EVQLVESGGGLVKPGGSLRLSCAASGFTFSSYSMNWVRQAPGKGLEWVSSISSSSRYIYYADSVKGRFTISRDNAKNSLYLQMNSLRAEDTAVYYCARQNEDVAFGIWGQGTMVTVSS
# VL: SYVLTQPPSVSVTPGKTARIACGGNNLESKIVSWYQQKPGQAPVLVIFYDTDRPSGISERFSGSNSGNTATLTISRVEAGDEADYYCQVWDSNSDHVIFGGGTKLTVLG
# B2: anti-PD-L1 antibody clone 32 (antibody, V domains shown)
# VH: QVQLVQSGAKVKKPGSSVKVSCKASGGTFSSYAISWVRQAPGQGLEWMGRIIPILGIANYAQKFQGRVTITADKSTSTAYMELSSLRSEDTAVYYCARVVPGYSYGPFDYWGQGTTVTVSS
# VL: QSALTQPASVSGSPGQSITISCTGTSNDVGSYNSVSWYQQHPGKAPKLVIYEVANRPSGVPDRFSGSKSGNTASLTISGLQAEDEADYYCSSYTSSSTLVFGGGTKLTVLG
# B3: anti-PD-L1 antibody clone 6 (antibody, V domains shown)
# VH: QVQLVQSGAEVKKPGSSVKVSCKASGGTFRRYSISWVRQAPGQGLEWMGGIIPVFGAAKYAQKFQGRVTITADEFTSTAYMELSSLTSEDTAVYYCALSGDSDAFDIWGQGTMVTVSS
# VL: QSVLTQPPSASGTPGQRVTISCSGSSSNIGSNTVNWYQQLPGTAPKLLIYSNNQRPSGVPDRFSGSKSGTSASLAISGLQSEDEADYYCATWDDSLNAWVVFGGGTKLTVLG
# How the values were obtained:
# [1] = molecular target: T1, human OX40 IgG1 Fc chimera; experiment: ELISA
# [2] = molecular target: T2, human PD-L1 IgG1 Fc chimera (human, UniProt Q9NZQ7 19-238); experiment: ELISA
# T2 sequence (Q9NZQ7 19-238, change not shown): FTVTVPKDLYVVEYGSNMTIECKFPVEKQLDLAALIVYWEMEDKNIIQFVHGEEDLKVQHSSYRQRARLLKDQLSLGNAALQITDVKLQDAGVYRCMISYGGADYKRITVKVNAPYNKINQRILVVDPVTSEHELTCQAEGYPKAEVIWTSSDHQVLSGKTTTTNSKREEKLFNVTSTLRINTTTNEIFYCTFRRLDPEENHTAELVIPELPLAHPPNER
# [3] = molecular target: T2, human PD-L1 IgG1 Fc chimera; experiment: competition ELISA; PD-1/PD-L1 blocking
Binder,EC50 [1],EC50 [2],IC50 [3]
B1,1.22 nM,,
B2,,0.0348 nM,
B3,,0.082 nM,11.4 nM

# Reference: patent US20250346678A1 (published 2025)
